In article PMC9482650, “Quantitative fragmentomics allow affinity mapping of interactomes” (Nature Communications, 2022):

Assays:
Assay in all cases: holdup assay
Design in all cases: key: below the threshold = too weak to quantify, mostly under pKd 3.1 to 4
Settings in all cases: plain residues with an end cap or a label only (N-terminal biotin on a linker: ado-ado)
[1] = molecular target: T1, DFNB31_3, Q9P202
T1 sequence (Q9P202 811-907, limits assumed, looked up): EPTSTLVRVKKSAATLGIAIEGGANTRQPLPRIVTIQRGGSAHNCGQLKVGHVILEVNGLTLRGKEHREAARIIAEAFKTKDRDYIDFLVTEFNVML

[2] = molecular target: T2, LIN7C, Q9NUP9
T2 sequence (Q9NUP9 88-185, limits assumed, looked up): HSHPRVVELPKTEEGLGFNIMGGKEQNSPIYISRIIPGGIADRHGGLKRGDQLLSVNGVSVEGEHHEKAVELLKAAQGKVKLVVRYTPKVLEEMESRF

[3] = molecular target: SCRIB_2, Q14160
[4] = molecular target: T3, GRIP1_5, Q9Y3R0
T3 sequence (Q9Y3R0 568-668, limits assumed, looked up): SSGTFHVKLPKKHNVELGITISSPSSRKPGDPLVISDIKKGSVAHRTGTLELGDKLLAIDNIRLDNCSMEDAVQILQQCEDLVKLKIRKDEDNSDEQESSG

[5] = molecular target: FRMPD2_3, Q68DX3
[6] = molecular target: GORASP2, Q9H8Y8
[7] = molecular target: GRIP2_3, Q9C0E4
[8] = molecular target: T4, SIPA1L2, Q9P2F8
T4 sequence (Q9P2F8 945-1036, limits assumed, looked up): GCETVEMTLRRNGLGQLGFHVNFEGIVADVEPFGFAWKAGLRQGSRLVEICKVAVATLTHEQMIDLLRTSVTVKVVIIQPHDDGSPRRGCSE

[9] = molecular target: GORASP1, Q9BQQ3
[10] = molecular target: T5, DVL3, Q92997
T5 sequence (Q92997 244-331, limits assumed, looked up): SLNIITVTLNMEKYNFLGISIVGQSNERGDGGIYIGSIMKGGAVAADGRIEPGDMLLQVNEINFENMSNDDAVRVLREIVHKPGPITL

[11] = molecular target: FRMPD4, Q14CM0
[12] = molecular target: GRID2IP_1, A4D2P6
[13] = molecular target: T6, SHANK1, Q9Y566
T6 sequence (Q9Y566 658-767, limits assumed, looked up): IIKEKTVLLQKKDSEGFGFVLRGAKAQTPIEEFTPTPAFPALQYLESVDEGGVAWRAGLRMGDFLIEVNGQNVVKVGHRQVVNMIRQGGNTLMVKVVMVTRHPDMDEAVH

[14] = molecular target: T7, NHERF3_3, Q5T2W1
T7 sequence (Q5T2W1 238-333, limits assumed, looked up): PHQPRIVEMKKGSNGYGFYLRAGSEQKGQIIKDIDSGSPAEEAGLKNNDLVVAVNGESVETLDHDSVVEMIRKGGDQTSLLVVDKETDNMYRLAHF

[15] = molecular target: MAGI3_2, Q5TCQ9
[16] = molecular target: TJP1_2, Q07157
[17] = molecular target: T8, LNX2_2, Q8N448
T8 sequence (Q8N448 334-432, limits assumed, looked up): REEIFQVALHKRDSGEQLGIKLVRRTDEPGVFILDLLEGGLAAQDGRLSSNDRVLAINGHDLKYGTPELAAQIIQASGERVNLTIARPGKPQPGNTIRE

[18] = molecular target: T9, NHERF3_4, Q5T2W1
T9 sequence (Q5T2W1 373-468, limits assumed, looked up): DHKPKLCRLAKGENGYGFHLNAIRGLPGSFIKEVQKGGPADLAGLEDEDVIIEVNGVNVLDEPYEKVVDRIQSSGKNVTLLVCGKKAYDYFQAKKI

[19] = molecular target: T10, MPDZ_5, O75970
T10 sequence (O75970 695-796, limits assumed, looked up): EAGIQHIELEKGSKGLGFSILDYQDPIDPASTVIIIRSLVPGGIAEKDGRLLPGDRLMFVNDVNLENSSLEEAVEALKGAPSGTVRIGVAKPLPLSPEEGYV

[20] = molecular target: PICK1, Q9NRD5
[21] = molecular target: LNX1_2, Q8TBB1
[22] = molecular target: T11, SNTB1, Q13884
T11 sequence (Q13884 107-205, limits assumed, looked up): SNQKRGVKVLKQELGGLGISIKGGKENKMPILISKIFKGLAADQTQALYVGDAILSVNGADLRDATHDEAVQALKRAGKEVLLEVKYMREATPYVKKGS

[23] = molecular target: T12, DLG3_2, Q92796
T12 sequence (Q92796 221-321, limits assumed, looked up): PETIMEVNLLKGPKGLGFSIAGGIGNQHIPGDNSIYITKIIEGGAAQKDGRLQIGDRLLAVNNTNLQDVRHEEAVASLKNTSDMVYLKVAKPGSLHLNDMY

[24] = molecular target: AHNAK1, Q09666
[25] = molecular target: Inadl_2, Q8NI35
Sequence of Inadl_2, Q8NI35 (Q8NI35 238-335): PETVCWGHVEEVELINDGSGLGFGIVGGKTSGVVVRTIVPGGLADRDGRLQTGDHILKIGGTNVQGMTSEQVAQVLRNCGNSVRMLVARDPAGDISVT

Sequence of SCRIB_2, Q14160 (Q14160 857-960): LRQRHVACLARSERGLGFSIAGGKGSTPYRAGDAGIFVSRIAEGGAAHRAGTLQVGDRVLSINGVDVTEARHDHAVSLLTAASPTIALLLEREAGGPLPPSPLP
Sequence of AHNAK1, Q09666 (Q09666 4-100): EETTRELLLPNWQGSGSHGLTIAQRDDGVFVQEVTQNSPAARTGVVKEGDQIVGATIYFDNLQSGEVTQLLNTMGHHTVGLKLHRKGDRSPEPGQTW
Sequence of PICK1, Q9NRD5 (Q9NRD5 17-115): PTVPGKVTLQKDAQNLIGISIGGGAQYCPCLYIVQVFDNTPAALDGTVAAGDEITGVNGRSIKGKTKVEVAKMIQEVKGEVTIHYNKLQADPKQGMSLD
Sequence of LNX1_2, Q8TBB1 (Q8TBB1 371-470): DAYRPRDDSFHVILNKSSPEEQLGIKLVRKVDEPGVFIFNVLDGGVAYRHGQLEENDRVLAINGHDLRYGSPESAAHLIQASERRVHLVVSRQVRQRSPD
Sequence of GORASP1, Q9BQQ3 (Q9BQQ3 1-208): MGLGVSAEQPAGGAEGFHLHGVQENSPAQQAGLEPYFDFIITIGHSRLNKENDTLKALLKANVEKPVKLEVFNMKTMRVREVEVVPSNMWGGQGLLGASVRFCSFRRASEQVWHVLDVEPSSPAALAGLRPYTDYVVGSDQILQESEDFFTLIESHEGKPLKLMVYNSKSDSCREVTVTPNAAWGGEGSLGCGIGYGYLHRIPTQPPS
Sequence of GRID2IP_1, A4D2P6 (A4D2P6 1-87): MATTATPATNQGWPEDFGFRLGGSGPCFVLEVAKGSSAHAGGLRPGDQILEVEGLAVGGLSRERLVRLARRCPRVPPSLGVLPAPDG
Sequence of FRMPD4, Q14CM0 (Q14CM0 67-160): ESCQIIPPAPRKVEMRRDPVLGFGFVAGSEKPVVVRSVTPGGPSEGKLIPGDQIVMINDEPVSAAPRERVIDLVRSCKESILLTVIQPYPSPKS
Sequence of GRIP2_3, Q9C0E4 (Q9C0E4 238-339): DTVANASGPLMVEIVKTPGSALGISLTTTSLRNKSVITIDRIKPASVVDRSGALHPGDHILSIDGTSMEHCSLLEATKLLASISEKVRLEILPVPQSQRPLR
Sequence of FRMPD2_3, Q68DX3 (Q68DX3 1073-1166): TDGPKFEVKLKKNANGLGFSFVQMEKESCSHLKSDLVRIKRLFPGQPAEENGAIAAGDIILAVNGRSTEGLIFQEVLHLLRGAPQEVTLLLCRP
Sequence of MAGI3_2, Q5TCQ9 (Q5TCQ9 398-503): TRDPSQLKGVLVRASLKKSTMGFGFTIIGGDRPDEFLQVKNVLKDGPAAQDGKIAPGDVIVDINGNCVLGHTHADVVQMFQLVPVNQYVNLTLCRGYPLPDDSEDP
Sequence of TJP1_2, Q07157 (Q07157 181-274): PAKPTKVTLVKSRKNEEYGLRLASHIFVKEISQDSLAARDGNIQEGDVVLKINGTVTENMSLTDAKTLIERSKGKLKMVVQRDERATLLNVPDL

B1: CACNA1A, O00555 (peptide)
chain: PYSESDDDWC
[1]
  pKd: 3.6
[2]
  pKd: below the threshold
[3]
  pKd: below the threshold
[4]
  pKd: below the threshold
[5]
  pKd: below the threshold
[6]
  pKd: 3.67
[7]
  pKd: below the threshold
[8]
  pKd: below the threshold
[9]
  pKd: below the threshold
[10]
  pKd: below the threshold
[11]
  pKd: 4.01
[12]
  pKd: below the threshold
[13]
  pKd: below the threshold
[14]
  pKd: below the threshold
[15]
  pKd: below the threshold
[16]
  pKd: below the threshold
[17]
  pKd: 4
[18]
  pKd: below the threshold
[19]
  pKd: below the threshold
[20]
  pKd: below the threshold
[21]
  pKd: below the threshold
[22]
  pKd: below the threshold
[23]
  pKd: 4.16
[24]
  pKd: below the threshold
[25]
  pKd: below the threshold

B2: OR8G1, Q15617 (peptide)
chain: KKMLQRRTLL
[1]
  pKd: 4.08
[2]
  pKd: below the threshold
[3]
  pKd: below the threshold
[4]
  pKd: below the threshold
[5]
  pKd: below the threshold
[6]
  pKd: 3.8
[7]
  pKd: below the threshold
[8]
  pKd: below the threshold
[9]
  pKd: 4.06
[10]
  pKd: below the threshold
[11]
  pKd: 3.53
[12]
  pKd: below the threshold
[13]
  pKd: 4.71
[14]
  pKd: 3.77
[15]
  pKd: 4.55
[16]
  pKd: below the threshold
[17]
  pKd: below the threshold
[18]
  pKd: 4.64
[19]
  pKd: below the threshold
[20]
  pKd: 3.99
[21]
  pKd: below the threshold
[22]
  pKd: 3.64
[23]
  pKd: below the threshold
[24]
  pKd: below the threshold
[25]
  pKd: below the threshold
